Results taken from US10500249B2, “Compositions and methods for preventing or treating diseases, conditions, or processes characterized by aberrant fibroblast proliferation and extracellular matrix deposition” (MOERAE MATRIX, INC., priority 2014, dated 2019).

How the values were obtained:
Assay in all cases: Kinase Profiling Assay
Format in all cases: biochemical
Conditions in all cases: 100 μM
ARK5 (h) = target: T1, ARK5 (h) (Homo sapiens, UniProt O60285)
T1 sequence (O60285 1-661): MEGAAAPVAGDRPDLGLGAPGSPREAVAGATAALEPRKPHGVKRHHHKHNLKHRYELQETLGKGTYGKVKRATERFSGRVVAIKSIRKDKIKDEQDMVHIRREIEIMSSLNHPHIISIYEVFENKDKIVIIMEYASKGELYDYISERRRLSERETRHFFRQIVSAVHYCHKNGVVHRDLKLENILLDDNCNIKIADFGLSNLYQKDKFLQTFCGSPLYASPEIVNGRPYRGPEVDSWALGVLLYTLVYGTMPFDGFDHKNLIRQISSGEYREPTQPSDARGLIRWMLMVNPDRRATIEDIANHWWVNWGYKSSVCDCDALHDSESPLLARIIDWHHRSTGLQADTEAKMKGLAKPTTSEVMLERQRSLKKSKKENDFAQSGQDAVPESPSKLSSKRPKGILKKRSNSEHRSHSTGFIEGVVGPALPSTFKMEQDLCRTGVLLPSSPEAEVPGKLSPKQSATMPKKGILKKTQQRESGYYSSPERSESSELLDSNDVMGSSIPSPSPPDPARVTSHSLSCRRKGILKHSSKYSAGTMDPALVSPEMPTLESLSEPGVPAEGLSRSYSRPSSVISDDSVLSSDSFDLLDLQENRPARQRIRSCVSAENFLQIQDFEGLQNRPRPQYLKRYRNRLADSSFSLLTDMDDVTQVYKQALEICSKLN
How it was run: (§1)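 In this 266-kinase specificity panel, every measurement was duplicated. Transfer of labeled phosphate from ATP to a cationic substrate was quantified after the substrate adhered to an anionic filter membrane and was scintillation-counted, then related to a full-activity control.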

BRK (h) = BRK (h) (Homo sapiens, UniProt Q13882)
Chain of BRK (h) (Q13882 whole entry): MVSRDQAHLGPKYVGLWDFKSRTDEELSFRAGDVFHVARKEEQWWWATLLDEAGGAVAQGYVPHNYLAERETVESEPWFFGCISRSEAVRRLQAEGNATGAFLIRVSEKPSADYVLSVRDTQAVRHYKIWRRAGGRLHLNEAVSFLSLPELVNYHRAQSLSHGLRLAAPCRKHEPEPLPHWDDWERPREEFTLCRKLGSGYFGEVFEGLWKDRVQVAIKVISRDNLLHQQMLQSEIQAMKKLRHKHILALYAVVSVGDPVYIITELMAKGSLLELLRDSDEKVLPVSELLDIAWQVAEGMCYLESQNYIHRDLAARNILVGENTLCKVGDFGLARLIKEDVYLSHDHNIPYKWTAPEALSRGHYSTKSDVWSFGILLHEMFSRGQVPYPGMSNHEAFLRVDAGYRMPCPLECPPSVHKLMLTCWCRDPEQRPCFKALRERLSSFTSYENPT
How it was run: as §1

DCAMKL2 (h) = target: T2, DCAMKL2 (h) (Homo sapiens, UniProt Q8N568)
T2 construct: purchased Millipore
T2 sequence (Q8N568 1-766): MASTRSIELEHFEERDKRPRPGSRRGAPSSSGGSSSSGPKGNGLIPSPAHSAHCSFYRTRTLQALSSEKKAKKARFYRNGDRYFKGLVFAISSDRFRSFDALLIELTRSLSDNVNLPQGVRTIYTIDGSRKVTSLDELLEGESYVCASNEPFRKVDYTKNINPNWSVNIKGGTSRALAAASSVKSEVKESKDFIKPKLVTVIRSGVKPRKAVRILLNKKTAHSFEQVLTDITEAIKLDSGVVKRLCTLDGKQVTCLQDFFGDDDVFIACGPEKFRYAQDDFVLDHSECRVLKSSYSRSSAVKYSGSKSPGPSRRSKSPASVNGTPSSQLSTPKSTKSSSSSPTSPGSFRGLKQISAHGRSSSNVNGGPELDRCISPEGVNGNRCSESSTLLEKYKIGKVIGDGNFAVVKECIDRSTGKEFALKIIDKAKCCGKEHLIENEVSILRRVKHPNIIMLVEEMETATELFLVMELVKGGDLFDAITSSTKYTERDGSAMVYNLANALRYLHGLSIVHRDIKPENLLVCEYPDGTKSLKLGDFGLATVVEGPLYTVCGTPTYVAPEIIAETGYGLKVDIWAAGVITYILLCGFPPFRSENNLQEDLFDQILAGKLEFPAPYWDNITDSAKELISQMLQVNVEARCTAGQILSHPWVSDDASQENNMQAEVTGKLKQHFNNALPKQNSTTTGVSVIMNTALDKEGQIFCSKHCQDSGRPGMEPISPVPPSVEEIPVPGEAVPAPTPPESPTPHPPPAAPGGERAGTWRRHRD
How it was run: as §1

Fms(Y969C) (h) = Fms(Y969C) (h) (Homo sapiens, UniProt P07333, Y969C)
How it was run: as §1

MAPKAP-K3 (h) = MAPKAP-K3 (h) (Homo sapiens, UniProt Q16644)
Chain of MAPKAP-K3 (h) (Q16644 whole entry): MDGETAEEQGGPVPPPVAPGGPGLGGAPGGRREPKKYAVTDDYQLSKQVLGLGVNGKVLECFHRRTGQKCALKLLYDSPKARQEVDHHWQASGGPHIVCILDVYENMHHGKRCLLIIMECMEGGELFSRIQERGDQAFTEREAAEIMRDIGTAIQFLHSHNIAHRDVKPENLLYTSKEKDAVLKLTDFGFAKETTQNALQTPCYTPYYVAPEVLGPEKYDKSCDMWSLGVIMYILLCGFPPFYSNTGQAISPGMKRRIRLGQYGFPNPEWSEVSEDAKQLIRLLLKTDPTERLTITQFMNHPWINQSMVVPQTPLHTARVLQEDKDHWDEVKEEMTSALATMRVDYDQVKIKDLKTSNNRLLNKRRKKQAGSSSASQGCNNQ
How it was run: as §1

NEK3 (h) = target: T3, NEK3 (h) (Homo sapiens, UniProt P51956)
T3 construct: purchased Millipore
T3 sequence (P51956 1-506): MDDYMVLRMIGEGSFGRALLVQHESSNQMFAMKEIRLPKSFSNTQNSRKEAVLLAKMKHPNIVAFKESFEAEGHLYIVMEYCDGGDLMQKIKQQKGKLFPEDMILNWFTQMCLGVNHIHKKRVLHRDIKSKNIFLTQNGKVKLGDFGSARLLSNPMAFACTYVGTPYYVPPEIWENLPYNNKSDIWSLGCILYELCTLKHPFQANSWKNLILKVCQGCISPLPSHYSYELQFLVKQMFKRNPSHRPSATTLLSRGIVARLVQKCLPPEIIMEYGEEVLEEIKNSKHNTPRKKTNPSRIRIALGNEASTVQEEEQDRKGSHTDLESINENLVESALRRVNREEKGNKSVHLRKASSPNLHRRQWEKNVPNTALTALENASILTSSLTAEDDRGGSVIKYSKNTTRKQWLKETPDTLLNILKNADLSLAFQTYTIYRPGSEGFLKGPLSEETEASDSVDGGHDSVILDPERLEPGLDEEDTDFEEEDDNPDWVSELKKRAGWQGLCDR
How it was run: as §1

PDGFRα (V561D) (h) = target: T4, PDGFRα (V561D) (h) (Homo sapiens, UniProt P16234, V561D)
T4 construct: purchased Millipore
T4 sequence (P16234 24-1089 V561D): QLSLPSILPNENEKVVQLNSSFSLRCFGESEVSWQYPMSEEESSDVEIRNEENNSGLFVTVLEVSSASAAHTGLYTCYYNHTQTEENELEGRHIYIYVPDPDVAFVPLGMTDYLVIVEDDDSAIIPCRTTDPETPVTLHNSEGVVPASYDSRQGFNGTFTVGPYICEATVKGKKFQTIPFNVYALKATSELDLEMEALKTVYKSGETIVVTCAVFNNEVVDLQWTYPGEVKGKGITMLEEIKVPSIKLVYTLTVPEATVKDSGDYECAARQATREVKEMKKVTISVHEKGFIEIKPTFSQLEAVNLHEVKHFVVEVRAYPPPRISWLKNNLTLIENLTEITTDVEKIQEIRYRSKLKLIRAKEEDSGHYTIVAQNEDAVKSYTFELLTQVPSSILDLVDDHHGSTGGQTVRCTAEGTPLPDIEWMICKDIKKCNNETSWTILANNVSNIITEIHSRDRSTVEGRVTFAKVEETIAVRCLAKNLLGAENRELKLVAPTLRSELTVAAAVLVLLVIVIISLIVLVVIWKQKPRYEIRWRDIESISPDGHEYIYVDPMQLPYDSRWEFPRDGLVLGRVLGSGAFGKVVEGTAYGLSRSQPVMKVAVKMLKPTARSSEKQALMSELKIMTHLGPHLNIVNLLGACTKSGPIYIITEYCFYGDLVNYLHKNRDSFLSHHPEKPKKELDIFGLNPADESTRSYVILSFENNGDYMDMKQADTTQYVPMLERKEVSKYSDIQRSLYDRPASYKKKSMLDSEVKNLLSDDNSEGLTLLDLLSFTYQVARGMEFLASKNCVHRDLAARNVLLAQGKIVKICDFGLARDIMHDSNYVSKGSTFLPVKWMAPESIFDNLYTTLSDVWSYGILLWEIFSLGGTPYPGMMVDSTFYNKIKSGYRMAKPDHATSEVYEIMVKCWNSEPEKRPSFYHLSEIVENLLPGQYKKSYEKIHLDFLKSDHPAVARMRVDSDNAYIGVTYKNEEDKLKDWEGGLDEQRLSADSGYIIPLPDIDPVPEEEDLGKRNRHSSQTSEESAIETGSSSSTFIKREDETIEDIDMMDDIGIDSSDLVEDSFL
How it was run: as §1

Ret (h) = Ret (h) (Homo sapiens, UniProt P07949)
How it was run: as §1

Ret(V804M) (h) = Ret(V804M) (h) (Homo sapiens, UniProt P07949, V804M)
How it was run: as §1

Src(1-530) (h) = target: T5, Src(1-530) (h) (Homo sapiens, UniProt P12931)
T5 construct: Src(1-530) (h)
How it was run: as §1

cKit(D816V) (h) = target: T6, cKit(D816V) (h) (Homo sapiens, UniProt P10721, D816V)
T6 construct: purchased Millipore
How it was run: as §1

| Sequence | % activity (ARK5 (h)) | % activity (BRK (h)) | % activity (DCAMKL2 (h)) | % activity (Fms(Y969C) (h)) | % activity (MAPKAP-K3 (h)) | % activity (NEK3 (h)) | % activity (PDGFRα (V561D) (h)) | % activity (Ret (h)) | % activity (Ret(V804M) (h)) | % activity (Src(1-530) (h)) | % activity (cKit(D816V) (h)) |
| --- | --- | --- | --- | --- | --- | --- | --- | --- | --- | --- | --- |
| FAKLAARLYRKALARQLGVAA [MMI-0300] | 78% | 35% | 81% | 72% | 3% | 92% | 82% | 140% | 95% | 23% | 60% |
| HRRIKAWLKKIKALARQLGVAA (Mammalian) [MMI-0500] | 20% | 41% | 56% |  | 9% | 20% | 146% | 174% | 36% | 21% | 30% |
| KAFAKLAARLYRKALARQLGVAA [MMI-0400] | 69% | 18% | 70% | 91% | 7% | 85% | 100% | 145% | 87% | 19% | 35% |
| YARAAARQARAKALNRQLGVA (Mammalian) [MMI-0200] | 93% | 127% | 131% | 88% | 39% | 100% |  | 96% |  | 75% | 118% |
